Legend:
[1] = molecular target: T1, LukE, recombinant protein used for HDX mapping (Staphylococcus aureus, UniProt Q2FXB0 24-306); test: HDX-MS
T1 construct: also called LukE (HDX)
T1 chain: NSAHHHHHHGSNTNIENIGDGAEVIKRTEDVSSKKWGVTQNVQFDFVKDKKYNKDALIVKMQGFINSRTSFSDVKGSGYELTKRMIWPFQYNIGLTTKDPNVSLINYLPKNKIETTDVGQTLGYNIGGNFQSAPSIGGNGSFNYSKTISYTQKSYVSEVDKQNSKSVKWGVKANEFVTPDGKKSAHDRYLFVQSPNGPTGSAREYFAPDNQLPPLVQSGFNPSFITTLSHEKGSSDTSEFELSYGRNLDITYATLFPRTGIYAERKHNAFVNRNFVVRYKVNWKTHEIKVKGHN

[2] = molecular target: T2, LukE, recombinant parental form with amino-terminal poly-histidine and streptavidin binding sequences (S. aureus); test: BLI, biotinylated LukE on streptavidin pins, Luk26 FN3 at 10 ug/mL
T2 chain: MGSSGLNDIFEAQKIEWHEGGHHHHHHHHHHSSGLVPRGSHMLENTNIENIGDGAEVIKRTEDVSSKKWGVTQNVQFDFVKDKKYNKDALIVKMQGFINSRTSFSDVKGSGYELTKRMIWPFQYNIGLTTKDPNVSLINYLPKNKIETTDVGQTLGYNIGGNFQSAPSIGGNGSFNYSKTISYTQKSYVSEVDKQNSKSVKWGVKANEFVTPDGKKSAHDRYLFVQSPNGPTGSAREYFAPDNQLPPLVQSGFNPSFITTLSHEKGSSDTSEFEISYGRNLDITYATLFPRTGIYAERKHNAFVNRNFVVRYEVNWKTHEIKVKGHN

[3] = molecular target: T3, recombinant Protein A (ProSpec-TanyTechnoGene Ltd.), biotinylated (S. aureus, UniProt P38507 37-327); test: ELISA, biotinylated Protein A on streptavidin plate
T3 construct: also called SpA
Procedure: Characterization of Protein A binding was determined by ELISA. Briefly, plates were coated with streptavidin (5 μg/mL in PBS, 50 μL per well) and incubated overnight at 4° C. Plates were washed three times with ELISA wash buffer (0.15M NaCl, 0.02% Tween-20) and then coated with biotinylated Protein A at 2 μg/mL (50 L per well) in PBS for one hour at room temperature. Plates were then washed three times with ELISA wash buffer and then blocked with ELISA blocking buffer (3% BSA in PBS, 200 μL per well). Test articles were then added in a 3-fold dilution series starting at 10 μg/mL and the plates incubated at room temperature for one hour. Plates were then washed three times with ELISA wash buffer and 50 mL per well of HRP-conjugated goat anti-human kappa light chain (Millipore AP502P) added at a 1:15,000 dilution in 3% BSA in PBS and the plates incubated for one hour at room temperature. Plates were then washed five times with ELISA wash buffer and bound HRP detected using the 3,3′,5,5′-Tetramethylbenzidine (TMB; Fitzgerald) as a chromogenic substrate.

TD peptide = test: ELISA, peptide captured on streptavidin
[4] = molecular target: T4, LukAB toxoid variant (LukA E323A), recombinant polyhistidine-tagged (S. aureus, UniProt Q2FFA2 28-351; P21224 30-338); test: BLI, FN3 protein on streptavidin pins, LukAB in solution
T4 sequence 1: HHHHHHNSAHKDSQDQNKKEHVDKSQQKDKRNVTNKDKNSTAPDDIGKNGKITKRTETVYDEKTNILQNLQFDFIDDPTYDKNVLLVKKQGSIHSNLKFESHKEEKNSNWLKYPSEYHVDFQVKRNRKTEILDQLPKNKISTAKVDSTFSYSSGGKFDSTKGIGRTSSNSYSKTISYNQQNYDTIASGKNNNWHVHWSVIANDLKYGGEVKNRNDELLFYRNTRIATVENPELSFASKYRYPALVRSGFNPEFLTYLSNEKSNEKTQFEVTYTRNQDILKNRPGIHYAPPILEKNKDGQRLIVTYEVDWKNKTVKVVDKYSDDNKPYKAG
T4 sequence 2: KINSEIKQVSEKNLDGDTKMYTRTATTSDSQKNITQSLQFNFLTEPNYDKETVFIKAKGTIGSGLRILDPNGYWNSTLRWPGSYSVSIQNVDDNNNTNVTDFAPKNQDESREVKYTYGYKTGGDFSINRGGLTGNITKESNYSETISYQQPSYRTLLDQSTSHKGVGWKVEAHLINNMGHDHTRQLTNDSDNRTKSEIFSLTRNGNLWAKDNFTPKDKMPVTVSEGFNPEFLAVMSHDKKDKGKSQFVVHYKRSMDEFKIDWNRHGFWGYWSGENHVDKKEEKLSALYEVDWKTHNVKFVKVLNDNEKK

[5] = molecular target: T4, LukAB toxoid variant (LukA E323A), …; test: ELISA and neutralisation assay

B1: Luk26 LukE binding FN3 domain (designed binder)
chain: LPAPKNLVVSRVTEDSARLSWTAPDAAFDSFHIEYAEPWVWGEAIVLTVPGSERSYDLTGLKPGTEYVVFIGGVKGGHNSTPLSAIFTT
- binding result [1]: binds

B2: Luk26 FN3 protein with carboxyl-terminal poly-histidine sequence (designed binder)
chain: MLPAPKNLVVSRVTEDSARLSWTAPDAAFDSFHIEYAEPWVWGEAIVLTVPGSERSYDLTGLKPGTEYVVFIGGVKGGHNSTPLSAIFTTGGHHHHHH
- binding result [2]: binds

B3: anti-LTA (Pagibaximab) PRASA A6 (Table 1 Construct 33) (antibody, human IgG1, kappa)
heavy: EVMLVESGGGLVQPKGSLKLSCAASGFTFNNYAMNWVRQAPGKGLEWVARIRSKSNNYATFYADSVKDRFTISRDDSQSMLYLQMNNLKTEDTAMYYCVRRGASGIDYAMDYWGQGTSLTVSSASTKGPSVFPLAPSSKSTSGGTAALGCLVKDYFPEPVTVSWNSGALTSGVHTFPAVLQSSGLYSLSSVVTVPSSSLGTQTYICNVNHKPSNTKVDKKVEPKSCDKTHTCPPCPAPPVAGPDVFLFPPKPKDTLMISRTPEVTCVVVDVSHEDPEVKFNWYVDGVEVHNAKTKPREEQYNSTYRVVSVLTVLHQDWLNGKEYKCKVSNAALPAPIAKTISKAKGQPREPQVYTLPPSRDELTKNQVSLTCLVKGFYPSDIAVEWESNGQPENNYKTTPPVLDSDGSFFLYSKLTVDKSRWQQGNVFSCSVMHEALHNRFTQKSLSLSPGK
light: DIVLSQSPAILSASPGEKVTMTCRASSSVNYMHWYQQKPGSSPKPWISATSNLASGVPARFSGSGSGTSYSLTISRVEAEDAATYYCQQWSSNPPTFGGGTMLEIKRTVAAPSVFIFPPSDEQLKSGTASVVCLLNNFYPREAKVQWKVDNALQSGNSQESVTEQDSKDSTYSLSSTLTLSKADYEKHKVYACEVTHQGLSSPVTKSFNRGEC
notes: also called LTA PRASA A6; PRASA A6 variant of pagibaximab
- binding result [3]: no binding (tested: 10 µg/mL)

B4: mAb 5133 (CR5133, IgG1 wt; Table 1 Construct 1) (antibody)
heavy: not shown
light: EIVLTQSPATLSLSPGERATLSCRASQSVSGYLGWYQQKPGQAPRLLIYGASSRATGIPDRFSGSGSGTDFTLTISRLEPEDFAVYYCQQYGSSPLTFGGGTKLEIKRTVAAPSVFIFPPSDEQLKSGTASVVCLLNNFYPREAKVQWKVDNALQSGNSQESVTEQDSKDSTYSLSSTLTLSKADYEKHKVYACEVTHQGLSSPVTKSFNRGEC
- binding result (TD peptide): no binding

B5: TENCON-His-SA (designed binder)
chain: MLPAPKNLVVSRVTEDSARLSWTAPDAAFDSFLIQYQESEKVGEAIVLTVPGSERSYDLTGLKPGTEYTVSIYGVKGGHRSNPLSAIFTTGGHHHHHHGGGLNDIFEAQKIEWHE
notes: also called parental control FN3 domain protein
- binding result [4]: no binding (tested: 10 ug/mL)

B6: Luk17 LukAB binding FN3 domain (designed binder)
chain: LPAPKNLVVSRVTEDSARLSWTAPDAAFDSFWITYEEKFYRGEAIVLTVPGSERSYDLTGLKPGTEYKVWIVGVKGGQGSWPLSAIFTT
- binding result [5]: binds
